Results on one molecule are retold here after patent US7211419B2, “Mutant carbamoylphosphate synthetase and method for producing compounds derived from carbamoylphosphate” (priority 2001, dated 2007).

This test relates to carbamoylphosphate synthetase (CPSase). Nature of the test: CPSase activity in reaction of carbamoylphosphate (CP) synthesis from glutamine or ammonia, protein extracts, CP by capillary zone electrophoresis. In kind it is biochemical, E. coli. The method, then: Then, the protein extracts from these 9 clones B-6969(pEL-carAB-NN) and one clone B-6969(pEL-carAB-6) were used to evaluate the activity and fbr of mutant CPSases in reaction of carbamoylphosphate (CP) synthesis from glutamine or ammonia.
The crude cellular extracts from cells were prepared by sonication of 20 mg wet cells pellet suspended in 0.5 ml of buffer A (200 mM K2HPO4/KH2PO4, pH 8.0, 1 mM EDTA, 1 mM PMSF, 1 mM DTT) and treated with solid ammonium sulfate to achieve 65% of saturation. After incubation for 10 min at 4° C., the suspensions were centrifuged at 13,000 rpm for 10 min and the precipitates were dissolved in 1 ml of buffer B (20 mM K2HPO4/KH2PO4, pH 8.0, 50 mM KCl, 1 mM PMSF, 1 mM DTT). The aliquots of obtained protein extracts were used to evaluate the CPSase activity. The schemes of reaction were following: Gln+CO2+2MgATP+H2O→NH2COOPO3^2−+2MgADP+Glu+P1 I. NH3+CO2+[…]+H2O→NH2COOPO3^2−+2MgADP+P1 II.
The 50 μl of each reaction mixture included:
reaction I—20 mM tris-HCl, pH 8.0, 100 mM KCl, 5 mM Na2CO3, 10 mM ATP, 10 mM MgCl2, 5 mM glutamine, 10 μl of protein extract;
reaction II—20 mM tris-HCl, pH 8.0, 100 mM KCl, 5 mM Na2CO3, 10 mM ATP, 10 mM MgCl2, 200mM (NH4)2SO4, 10 μl of protein extract. […]
After incubation for 10 min at 37° C. reactions were stopped by addition of equal volume of EtOH, cooled at −20° C. for 10 min and centrifuged at 13,000 rpm for 1 min at room temperature. Supernatants were cooled at −20° C.
The CP content in reaction mixtures was analyzed by capillary zone electrophoresis. The separation was performed on a Quanta 4000E Capillary Electrophoresis System (“Waters”, USA) with UV indirect detection at 254 nm. The injection was performed by hydrostatic for 25 s. The separation was carried out with an uncoated fused-silica capillary (75 u I.D.* 60cm, effective length 53 cm) and was operated at −25 kV potential. Temperature was maintained at 20° C. The separation buffer consisted of 50 mM Tris base, 25mM benzoic acid (for indirect detection), pH 8.5, 0.25mM TTAB (tetradecyl-trimethyl-ammonium bromide) (for reversion of electroosmotic flow).

B1: clone Wt: wild type E. coli CPSase; CarB 947-951 -Leu-Ser-Val-Arg-Glu- (SEQ ID NO: 28) (protein, UniProt P0A6F1 1-382; P00968 2-1073, looked up)
Carbamoyl phosphate synthase … 1: MIKSALLVLEDGTQFHGRAIGATGSAVGEVVFNTSMTGYQEILTDPSYSRQIVTLTYPHIGNVGTNDADEESSQVHAQGLVIRDLPLIASNFRNTEDLSSYLKRHNIVAIADIDTRKLTRLLREKGAQNGCIIAGDNPDAALALEKARAFPGLNGMDLAKEVTTAEAYSWTQGSWTLTGGLPEAKKEDELPFHVVAYDFGAKRNILRMLVDRGCRLTIVPAQTSAEDVLKMNPDGIFLSNGPGDPAPCDYAITAIQKFLETDIPVFGICLGHQLLALASGAKTVKMKFGHHGGNHPVKDVEKNVVMITAQNHGFAVDEATLPANLRVTHKSLFDGTLQGIHRTDKPAFSFQGHPEASPGPHDAAPLFDHFIELIEQYRKTAK
Carbamoyl phosphate synthase … 2: PKRTDIKSILILGAGPIVIGQACEFDYSGAQACKALREEGYRVILVNSNPATIMTDPEMADATYIEPIHWEVVRKIIEKERPDAVLPTMGGQTALNCALELERQGVLEEFGVTMIGATADAIDKAEDRRRFDVAMKKIGLETARSGIAHTMEEALAVAADVGFPCIIRPSFTMGGSGGGIAYNREEFEEICARGLDLSPTKELLIDESLIGWKEYEMEVVRDKNDNCIIVCSIENFDAMGIHTGDSITVAPAQTLTDKEYQIMRNASMAVLREIGVETGGSNVQFAVNPKNGRLIVIEMNPRVSRSSALASKATGFPIAKVAAKLAVGYTLDELMNDITGGRTPASFEPSIDYVVTKIPRFNFEKFAGANDRLTTQMKSVGEVMAIGRTQQESLQKALRGLEVGATGFDPKVSLDDPEALTKIRRELKDAGADRIWYIADAFRAGLSVDGVFNLTNIDRWFLVQIEELVRLEEKVAEVGITGLNADFLRQLKRKGFADARLAKLAGVREAEIRKLRDQYDLHPVYKRVDTCAAEFATDTAYMYSTYEEECEANPSTDREKIMVLGGGPNRIGQGIEFDYCCVHASLALREDGYETIMVNCNPETVSTDYDTSDRLYFEPVTLEDVLEIVRIEKPKGVIVQYGGQTPLKLARALEAAGVPVIGTSPDAIDRAEDRERFQHAVERLKLKQPANATVTAIEMAVEKAKEIGYPLVVRPSYVLGGRAMEIVYDEADLRRYFQTAVSVSNDAPVLLDHFLDDAVEVDVDAICDGEMVLIGGIMEHIEQAGVHSGDSACSLPAYTLSQEIQDVMRQQVQKLAFELQVRGLMNVQFAVKNNEVYLIEVNPRAARTVPFVSKATGVPLAKVAARVMAGKSLAEQGVTKEVIPPYYSVKEVVLPFNKFPGVDPLLGPEMRSTGEVMGVGRTFAEAFAKAQLGSNSTMKKHGRALLSVREGDKERVVDLAAKLLKQGFELDATHGTAIVLGEAGINPRLVNKVHEGRPHIQDRIKNGEYTYIINTTSGRRAIEDSRVIRRSALQYKVHYDTTLNGGFATAMALNADATEKVISVQEMHAQIK
On to B1, for which the “Activity, (CP)” value amounted to 1350 nmol/mg/min (Substrate: 5 mM Gln); 170 nmol/mg/min (Substrate: 5 mM Gln, Allosteric effector: 10 mM UMP); 425 nmol/mg/min (Substrate: 200 mM (NH4)2SO4).
